Reference: the nanobody polyreactivity screen of Harvey et al. (2022)

Test: yeast display, Sf9 membrane polyspecificity reagent, FACS + sequencing; frameworks hold sequencing errors
In short: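 Polyreactivity labels are assigned by the sorting gate from which each nanobody was recovered. The gates were low and high (top ~1%), set on anti-HA fluorescence for expression and streptavidin fluorescence for reagent binding. Before sorting, galactose-induced (36–48 hours) yeast display cells were stained for 1 hour at 4 °C with 10% biotinylated, detergent-solubilized Sf9 membrane reagent.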

| Sequence | polyreactivity (PSR sort gate) |
| --- | --- |
| QVQLVESGGGLVQAGGSLRLSCAASGSTLAPYVMGWYRQAPGKERELVSVISTRTGRTSYADSVKGRFTLSRDNAKNTVYLQMNSLKPEDTAVYYCNAQWVSWWSLYDYWGQGTQVTVSS | high polyreactivity |
| QVQLVESGGGLVQAGGSLRLSCAASGSTLATYTMGWYRQAPGKERELVAAISFGGSTYYAYSVKGRFTISRDNAKNTVYLQMNSLKPEDTAVYYCAVYGDSYWGAYYYSDGYWGQGTQVTVSS | low polyreactivity |
| QVQLVESGGGLVQAGGSLRLSCAASGSTLDSYTMGWYRQAPGKERELVATISTSGGSTYYADAVKGRFTISRDNAKNTVSIQMNSLKPEDTAVYYCKADAPFGPNRYNSWGQGTQVTVSS | low polyreactivity |
| QVQLVESGGGLVQAGGSLRLSCAASGSTLDTYAMGWYRQAPGKERELVAGITWSGGSTYYADSVKGRFTISRDNAKNTVYLQMNSLKPEDTAVYYCAAYSPYGPRYDYWGQGTQVTVSS | low polyreactivity |
| QVQLVESGGGLVQAGGSLRLSCAASGSTLEFNARGWYRQAPGKERELVAVINRSDGSTYYAASVKGRFTISRDNAKNTVYLQMNSLKPEDTAVYYCAADRHQVSVISTEDYWGQGTQVTVSS | low polyreactivity |
| QVQLVESGGGLVQAGGSLRLSCAASGSTLEYYAMGWYRQAPGKERELVAAITYSGGDTYYADSVKGRFTISRDNAKNTVYLQMNSLKPEDTAVYYCAAEALYYPYETYDYWGQGTQVTVSS | high polyreactivity |
| QVQLVESGGGLVQAGGSLRLSCAASGSTLFAYAMGWYRQAPGKERELVAAITSGASTNYADSVKGRFTISRDNAKNTVYLQMNSLKPEDTAVYYCAKDVSGTNPDYDYWGQGTQVTVSS | low polyreactivity |
| QVQLVESGGGLVQAGGSLRLSCAASGSTLFFYTMGWYRQAPGKERELVAAITRGGSTYYADSVKGRFTISRDNAKNTVYLQLNSLKPEDTAVYYCAAPYVRPKKVYNYDYWGQGTQVTVSS | high polyreactivity |
| QVQLVESGGGLVQAGGSLRLSCAASGSTLGANAMGWYRQAPGKERELVAAISISDGDTYYADSVKGRFTISRDYAKNTVYLQMNSLKPEDTAVYYCAADYWFQYRWYDYWGQGTQVTVSS | high polyreactivity |
| QVQLVESGGGLVQAGGSLRLSCAASGSTLGAYAMGWYRQAPGKERELVAAISRSGGNTYYADSVKGRFTISRDNAKNTVYLQMNSLKPEDTAVYYCAAVRLYRYDYWGQGTQVTVSS | low polyreactivity |
| QVQLVESGGGLVQAGGSLRLSCAASGSTLGKYAMGWYRQAPGKERELVARITLNGGRTYYADSVKGRFTISRDNAKNTVYLQMNSLKPEDTAVYYCAKSLPHSTSRDYWGQGTQVTVSS | low polyreactivity |
| QVQLVESGGGLVQAGGSLRLSCAASGSTLGRNAMGWYRQAPGKERELVASITRSGGSTYYADSVKGRFTISRDNAKNTVYLQMNSLKPEDTAVYYCAAEVQGQVGEFDYWGQGTQVTVSS | low polyreactivity |
| QVQLVESGGGLVQAGGSLRLSCAASGSTLGRNAMVWYRQAPGKERELVAAITTSGGSTYYADSVKGRFTISRDNAKNTVYLQMNSLKPEDTAVYYCAARTGYRNYGYWGQGSQVTVSS | high polyreactivity |
| QVQLVESGGGLVQAGGSLRLSCAASGSTLGSNAMGWYRQAPGKERELVAAITWSGGTTYYADSVKGRFTISRDNAKNTVYLQMISLKPEDTAVYYCATGQSVIYRYEYWGQGTKVTVSS | low polyreactivity |
| QVQLVESGGGLVQAGGSLRLSCAASGSTLGYNAMGWYRQATGKERELVAGISRNGGSTFYADSVKGRFTISRDYAKYTLYLQMNSLKPEDTAVYYCARYYTHSGGFRVRIYYYWGQATQVTVSS | low polyreactivity |
| QVQLVESGGGLVQAGGSLRLSCAASGSTLGYNVMAWYRQAPGKERELVAAISGEGSTNYADSVKGRFTISRDNAKNTVYLQMNSLKPEDTAVYYCAADSRDDYEYWRQGTQVTVSS | low polyreactivity |
| QVQLVESGGGLVQAGGSLRLSCAASGSTLGYNVMGCYIQAPGKERELVAAISGDGSTNYADSVKGRFTISRDNAKNTVYLQMNSLKPEDTAVYYCAARPGWFAGYEYWGQGTQVTVSS | low polyreactivity |
| QVQLVESGGGLVQAGGSLRLSCAASGSTLGYYAMGWYRQAPGKERELVAAIRYSDGNTYYADSVKGRFTISRDNAKNTVYLQMNSLKPEDTAVYYCAADGGYYGREYWGQGTQVTVSS | high polyreactivity |
| QVQLVESGGGLVQAGGSLRLSCAASGSTLGYYTMGWYRQAPGKERELVAAIDWSGGSTYYADSVKGRFTISRDNAKNTVYLQMNSLKPEDTAVYYCAVDYTYSYVDYWSEYDYWGQGTQVTVSS | low polyreactivity |
| QVQLVESGGGLVQAGGSLRLSCAASGSTLHSYAMGWYRQAPGKERELVAAISFRGGSTYADSVKGRFTISRDNAKNTVYLQMNSLKPEDTAVYYCAAYSLYTMYWGQGTQVTVSS | low polyreactivity |
| QVQLVESGGGLVQAGGSLRLSCAASGSTLIFYAMGWYRQAPGKERELVAAIRFSGGTTYYADSVKGRFTISRDNAKNTVYLQMNSLKPEDTAVYDCAADPRPAYGYYYLYADFDYWGLGTQVTVSS | low polyreactivity |
| QVQLVESGGGLVQAGGSLRLSCAASGSTLIGYAMGWYRQAPGKERELVAVINRSGGRTYYADSVKGRFTISRDNSKNTVYLQMNSLKPEDTAVYYCAARPTALSYDSWGQGTQVTVSS | high polyreactivity |

| Sequence | polyreactivity (PSR sort gate) |
| --- | --- |
| QVQLVESGGGLVQAGGSLRLSCAASGSTLKLYVMGWYRQAPGKERELVAAISYSGGSTNYADSVKGRFTISRDNAKNTVYLQMNSLKPEDTAVYYCAAAGYKWYYKYYYWGQGTQVTVSS | high polyreactivity |
| QVQLVESGGGLVQAGGSLRLSCAASGSTLKSNVMGWYRQAPGKERELVAAISSSGGSTSYADSVKGRFTISRDNAKNTVYLLMKSLNPEDTAVYYCAARMGRYFWNSGVDYWGQGTQVTVSS | high polyreactivity |
| QVQLVESGGGLVQAGGSLRLSCAASGSTLLGYTMGWYRQAPGKERELVAVISWSGGGTYYADSVKGRFTISRDNAKNTVYLQMNSLKPEDTAVYYCAAETVLGYWYYRKYYYWGQGTQVTVSS | high polyreactivity |
| QVQLVESGGGLVQAGGSLRLSCAASGSTLLSYTMGWYRQAPGKERELVASITTSGGSTYYADSVKGRFTISRDNAKNTVYLQMNSLKPEDTAVYYWGQGTQVTVSS | low polyreactivity |
| QVQLVESGGGLVQAGGSLRLSCAASGSTLLTYTMGWYRQAPGKERELVASITTSARSTYYADSVKGRFTISRDNAKNTVYLQMNSLKPEDTAVYYWGQGTQVTVSS | low polyreactivity |
| QVQLVESGGGLVQAGGSLRLSCAASGSTLNRYAMGWYRQAPGKERELVAAISISGGRTYYADSVKGRFTISRDNAKNTVYLQMNSLKPEDTAVYYCAADQYYYRYIRTSKYDYWGQGTQVTVSS | high polyreactivity |
| QVQLVESGGGLVQAGGSLRLSCAASGSTLNSYVMGWYRQAPGKERELVATIRSGSSTNYADSVKGRFTISRDNAKNTVYLQMNSLKPEDTAVYDCAADAYSLCYDSWGQGTQVTVSS | low polyreactivity |
| QVQLVESGGGLVQAGGSLRLSCAASGSTLNYNAMGWYRQAPGKERELVAAISWSGGSTYYADSVKGRFTISRDNAKNTVYLQMNSLKPEDTAVYYCAADQSTVLDVGSWGQGTQVTGSS | low polyreactivity |
| QVQLVESGGGLVQAGGSLRLSCAASGSTLNYYAMGWYRQAPGKERELVAAITWSGGSTSYADSVKGRFTISRDNAKNTVYLPMNSLKRDDTAVYYCATDFPTVQLYETDWLSSDMGYWGQGTQVNVSS | low polyreactivity |
| QVQLVESGGGLVQAGGSLRLSCAASGSTLPANAMGWYRQAPGKERELVAAITITTDGSTYYADSVKGRFTISRDNAKNTVYLQMNSLKAEDTAVYYCAVARYRYHIRKMGYWGQGTQVTVSS | low polyreactivity |
| QVQLVESGGGLVQAGGSLRLSCAASGSTLPGNVMGWYRQAPGKERELVAAISKRGASTYYADSVKGRFTISRDNAKNNVYLQTPRLKPEDSAVYYCASRTRGSVVRFDYWGQGTQVTVSS | high polyreactivity |
| QVQLVESGGGLVQAGGSLRLSCAASGSTLPSYAMGWYRQAPGKERELVAAISSSGGRTYYADSVKGRFTISRDNAKNTVYLQMNSLKPEDTAVYYCAALSVANYHGTDSGYWGQGTQVTVSS | high polyreactivity |
| QVQLVESGGGLVQAGGSLRLSCAASGSTLPTNAMGWYRQAPGKEREFVAAISDNGGSTYYADSVKGRFTISRDNAKNTVYLQMNSLKPEDTAVYYCAADNFAPEFYYWGQGTQVTVSS | low polyreactivity |
| QVQLVESGGGLVQAGGSLRLSCAASGSTLPYNAMGWYRQAPGKERELVAAISKSGGRTYYADSVKGRFTISRDNAKNTVYLQMNSLKPEDTAVYYCNAGPYRGGGGSSRYYWGQGTQVTVSS | high polyreactivity |
| QVQLVESGGGLVQAGGSLRLSCAASGSTLPYYAMGWYRQAPGKERELVADITARGGTYYADSVKGRFTISRDNAKNTVYLQMNSLKPEDTAVYYCAAEDYWSPGYDYWGQGTQVTVSS | high polyreactivity |
| QVQLVESGGGLVQAGGSLRLSCAASGSTLRGNAMGWYRQAPGKERELVAAISWSGGITYYADSVKGRFTISRDNAKNTVYLQMNSLKPEDTAVYYCAVDRPRGGPTKYERRTKHGYWGQGTQVTVSS | low polyreactivity |
| QVQLVESGGGLVQAGGSLRLSCAASGSTLRGYAMGWYRQAPGEERELVAAISRRGSGTYYADSVKGRFTISRDNAKHTVYLQMNSLKPEETAVYYCNAVNGDYEFGYWGQGTQVTVSS | high polyreactivity |
| QVQLVESGGGLVQAGGSLRLSCAASGSTLRGYAMGWYRQAPGKEMELVAAITRSGGSTYYADSVKGRFTISRDNAKNTVYLQMNSLKPEDTAVYYCNARAFPYYRRFDYWGQGTQVTVSS | high polyreactivity |
| QVQLVESGGGLVQAGGSLRLSCAASGSTLRGYVMGWYRQAPGTERELVAAITQRAGSTYYADSVKGRFTISRDNAKNTVYLQMNSLKPEDTAVYYCRRFYFGKYDYWGQGTQVTVSS | high polyreactivity |
| QVQLVESGGGLVQAGGSLRLSCAASGSTLRYYAMGWYRQAPGKEREFVAAISWRGGSTYYADSVKGRFTISRDNAKNTVYLQMNSLKPEDTAVYYCAAKALYAYRLYDYWGQGTQVTVSS | high polyreactivity |
| QVQLVESGGGLVQAGGSLRLSCAASGSTLRYYAMGWYRQAPGKERELVAAISTGGSTYYADSVKVRFTISRDNAKNTVYLQMNSLKAEDTAVYYCAAEKKTKTYRYDYWGQGTQVTVSS | low polyreactivity |
